The results in this text go back to US20110104163A1 (US Dept. of Health and Human Services, published 2011).

Experiment [1] concerns the target T1, single-chain fusion protein gp120Bal-CD4 (HIV-1 isolate Bal, UniProt P01730 26-208).
T1 construct: Gift from T. Fouts; Coated on ELISA plates; also called gp120-CD4; Bal gp120-CD4; not shown: junction or linker between gp120 and CD4 not described (gift, Fouts et al. 2000)
The experiment in a line: ELISA, serially diluted m36 on coated antigen, anti-FLAG detection. A general note: ELISA stands for enzyme-linked immunosorbent assay.

A further experiment concerns the target T2, bovine serum albumin (bovine, UniProt P02769 25-607).
T2 construct: also called BSA
The experiment in a line: ELISA, plate coated with 1 µg/ml antigen, m36 detected with HRP anti-FLAG.

Another experiment addresses T3, soluble CD4 (UniProt P01730 26-396, limits assumed).
T3 construct: also called sCD4
Described as above.

In experiment [2] the target is T1, single-chain fusion protein gp120Bal-CD4. The experiment in a line: ELISA, soluble VH on coated gp120-CD4.

By EC50 is commonly meant the midpoint of the concentration-response curve.

T2 sequence (P02769 25-607 limits assumed): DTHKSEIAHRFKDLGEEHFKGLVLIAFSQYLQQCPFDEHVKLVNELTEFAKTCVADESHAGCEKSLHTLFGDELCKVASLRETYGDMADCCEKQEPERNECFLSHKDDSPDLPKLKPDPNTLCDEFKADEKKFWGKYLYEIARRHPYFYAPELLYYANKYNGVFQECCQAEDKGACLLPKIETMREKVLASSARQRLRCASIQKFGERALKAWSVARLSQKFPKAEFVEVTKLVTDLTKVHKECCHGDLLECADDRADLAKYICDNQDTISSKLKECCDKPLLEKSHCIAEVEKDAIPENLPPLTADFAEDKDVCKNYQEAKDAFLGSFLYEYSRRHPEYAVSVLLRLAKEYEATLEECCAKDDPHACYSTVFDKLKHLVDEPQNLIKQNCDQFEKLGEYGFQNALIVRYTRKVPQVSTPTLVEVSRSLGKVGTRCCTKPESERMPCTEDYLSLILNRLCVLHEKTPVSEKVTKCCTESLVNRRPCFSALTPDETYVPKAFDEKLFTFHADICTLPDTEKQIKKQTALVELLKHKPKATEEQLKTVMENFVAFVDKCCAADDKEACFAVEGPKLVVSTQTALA

B1: m36 (VHH)
VHH: QVQLVQSGGGLVQPGGSLRLSCAASAFDFSDYEMSWVRQAPGKGLEWIGEINDSGNTIYNPSLKSRVTISRDNSKNTLYLQMNTLRAEDTAIYYCAIYGGNSGGEYWGQGTLVTVSS
notes: Human VH domain antibody, monomeric, made in E. coli with His and FLAG tags; also called b5; dAb m36
For B1, the 50% effective concentration (EC50) in experiment [1] was roughly 2.5 nM; in experiment [2], 0.04 µg/mL. Moreover, the binding result in the experiment with bovine serum albumin and with soluble CD4 was “no binding (tested: 10 µg/ml)” throughout.
